Experimental data as given in PMC5428437, “The function of two P450s, CYP9M10 and CYP6AA7, in the permethrin resistance of Culex quinquefasciatus” (Scientific Reports, 2017).

Tests used:
[1] = substrate: CCOc1ccc2ccc(=O)oc2c1; assay: 7-ethoxycoumarin O-deethylation (ECOD), fluorescence of 7-hydroxycoumarin, Sf9 microsomes; type: biochemical, Culex quinquefasciatus; conditions: 1 mM NADPH, 0.1 M sodium phosphate pH 7.5, 30 °C, 30 min, substrate 0.1 to 1.2 mM, apparent
Description: 7-ethoxycoumarin O-deethylation (ECOD), fluorescence of 7-hydroxycoumarin, Sf9 microsomes on CYP6AA7/CPR

[2] = substrate: CCOc1ccc2ccc(=O)oc2c1; assay: as above; type: biochemical, Culex quinquefasciatus; conditions: 1 mM NADPH, 0.1 M sodium phosphate pH 7.5, 30 °C, 30 min, substrate 0.1 to 1.2 mM, apparent; remark: listed apart in the source
Description: 7-ethoxycoumarin O-deethylation (ECOD), fluorescence of 7-hydroxycoumarin, Sf9 microsomes on CYP9M10/CPR

B1: CYP6AA7/CPR (Culex quinquefasciatus) (protein)
chain: MSLLNTLLYLVLPVAALIYLFVRRKLSYWADRNVPHAPGSFPMGSLQGMGTKYHMSHILERIYQQFKNESPAVGFYLTMKPTLMVTDLELVKQVLVKDFNSFRDRGVYYNEKDDPVSAHLFAIDGEKWRFLRNKLSPTFTSGKIKYMFNTMQEIGDEFVECFGRYEEREEAVDVKTLCGWFTCDVIGSCAFGLNCNSLKNEESELITIANRLFKPSPIDAMWQFFFMSFRDLSAKLRLLILPRDIAKYFMTLIPETVTYREQNNVTRPDFLQLLIQLKNKGTVDGAEQESSGETLTMNQVVAQSFVFMLGGFETTSTALTFALFELANNPEIQEKVRVEVSSVLARHDGKITYDALKEMTYLEQVVNETLRMYPPVPFVARNSNHSYHITHPDVTLDADTMVLVPVYAIHYDPDIYQNPTRFDPDRFTPEATQARHTHAFLPFGDGPRNCIGLRFALLEVKFGIAVLLSKFRFSPSAKMILPLELDISAPMMAAKGGVWLDVNKINSKE
notes: complete reading frames cloned from 4th instar larvae cDNA; microsomal protein, not purified; with NADPH--cytochrome P450 reductase
In the case of B1, the Km [1] is reported as 564.8 ± 14.7 µM.

B2: CYP9M10/CPR (Culex quinquefasciatus) (protein)
chain: MTSLEWLLLLVPTAIYLFYRWSVATFDYFEKRGVPFVKPVPLLGGMWNFFSGKMHMVDAGSLGYEMFPDSRFSGFFAFRKPGYLIHDPELVKQITIKDFDHFADHTNVVPIEADPVLGRALFFTEGTRWKHGRSGLSPAFTGRKMRNMFALLSNYMEGAMGRLVDDARRDGGLELEMRDLFQKLGNDVTTSLSFGVEIDSVHNPNNEFMRRGKELIATDGIQGLKFLLLTVLPKSFFRTLRIRIIPKEATDFYVDVISKTIKQREEHNIVRPDFIHLLVQGRKNELKMEQADDQLKSAGFSTVEEHLQSSTENSQYSDLDITAAAASFFFGGLETTTTVICFALYEMSQNPNVKQKLQAEIDQVKEQLSTTDSKLSYEVLQNMKYLDMVVSETLRRWAPLGLTNRACTKPYTIEDNNGTKVSIQVGDLIQIPIQSIHRDHRFYPDPYKFDPERFSEENKANINRSAFLPFGSGPRNCIGSRLALMQTKCFLYYTLANFELELCPKTDVPIKLNKRSVSLDTLSGFWFRMVPRGEMKK
notes: as for B1
Work on B2 yielded a Km [2] of 779.3 ± 16.0 µM.
